In patent US20230242658A1 (published 2023) one finds EC50 data, which are given here for 7 molecules.

The target of assay [1] is human PD-L1 on CHO-K1 cells (human, UniProt Q9NZQ7 19-290). Briefly: FACS; MDA-MB-231 cells. In general terms: In flow cytometry, cells or beads pass a laser one at a time.
In assay [2] the target is human 4-1BB on CHO-K1 cells (human, UniProt Q07011 24-255). Briefly: FACS.

Chain of human PD-L1 on CHO-K1 cells (Q9NZQ7 19-290): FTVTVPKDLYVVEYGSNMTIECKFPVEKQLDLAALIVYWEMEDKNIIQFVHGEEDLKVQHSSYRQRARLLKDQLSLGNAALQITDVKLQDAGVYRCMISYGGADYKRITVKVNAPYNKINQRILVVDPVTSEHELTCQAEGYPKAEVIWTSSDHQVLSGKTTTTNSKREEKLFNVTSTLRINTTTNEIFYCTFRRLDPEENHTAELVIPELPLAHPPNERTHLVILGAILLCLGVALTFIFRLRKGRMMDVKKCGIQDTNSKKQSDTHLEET

B1: PR007139 (bispecific antibody)
light: DIQMTQSPSTLSASVGDRVTVTCRASQSIYIWLAWYQQKPGKAPNLLIYKASSLETGVPSRFSGSGSGTEFTLTISSLQPDDFATYYCQQYYGSSRTFGQGTKVEIKRTVAAPSVFIFPPSDEQLKSGTASVVCLLNNFYPREAKVQWKVDNALQSGNSQESVTEQDSKDSTYSLSSTLTLSKADYEKHKVYACEVTHQGLSSPVTKSFNRGEC
heavy: EVQLVESGGGLVQPGGSLRLSCAASGFTFSSYWMSWVRQAPGKGLEWVANIKQEGSEKYYVDSVKGRFTISRDNAKNSLYLQMNSLRAEDTAVYYCARDRAVAGAFDIWGQGTMVTVSSASTKGPSVFPLAPSSKSTSGGTAALGCLVKDYFPEPVTVSWNSGALTSGVHTFPAVLQSSGLYSLSSVVTVPSSSLGTQTYICNVNHKPSNTKVDKKVEPKSCDKTHTCPPCPAPEAAGAPSVFLFPPKPKDTLMISRTPEVTCVVVDVSHEDPEVKFNWYVDGVEVHNAKTKPREEQYNSTYRVVSVLTVLHQDWLNGKEYKCKVSNKALPAPIEKTISKAKGQPREPQVYTLPPSREEMTKNQVSLTCLVKGFYPSDIAVEWESNGQPENNYKTTPPVLDSDGSFFLYSKLTVDKSRWQQGNVFSCSVMHEALHNHYTQKSLSLSPGGGSGGSEVQLVESGGGLVKPGGSLRLSCAASGFTFSDYYMSWIRQAPGKGLEWVSYISSSGSTIDYADSVKGRFTISRDNAKNSLYLQMNSLRAEDTAVYYCAREREEVAGTLDYDNWGQGTLVTVSS
The EC50 is the concentration at which the effect is half-maximal. Low readings indicate an effect from little substance, high ones a need for much substance. In the case of B1, the EC50 in assay [1] came out at 0.257 nM; in assay [2], 6.84 nM.

B2: PR007141 (bispecific antibody)
light: DIQMTQSPSTLSASVGDRVTVTCRASQSIYIWLAWYQQKPGKAPNLLIYKASSLETGVPSRFSGSGSGTEFTLTISSLQPDDFATYYCQQYYGSSRTFGQGTKVEIKRTVAAPSVFIFPPSDEQLKSGTASVVCLLNNFYPREAKVQWKVDNALQSGNSQESVTEQDSKDSTYSLSSTLTLSKADYEKHKVYACEVTHQGLSSPVTKSFNRGEC
heavy: EVQLVESGGGLVQPGGSLRLSCAASGFTFSSYWMSWVRQAPGKGLEWVANIKQEGSEKYYVDSVKGRFTISRDNAKNSLYLQMNSLRAEDTAVYYCARDRAVAGAFDIWGQGTMVTVSSASTKGPSVFPLAPSSKSTSGGTAALGCLVKDYFPEPVTVSWNSGALTSGVHTFPAVLQSSGLYSLSSVVTVPSSSLGTQTYICNVNHKPSNTKVDKKVEPKSCDKTHTCPPCPAPEAAGAPSVFLFPPKPKDTLMISRTPEVTCVVVDVSHEDPEVKFNWYVDGVEVHNAKTKPREEQYNSTYRVVSVLTVLHQDWLNGKEYKCKVSNKALPAPIEKTISKAKGQPREPQVYTLPPSREEMTKNQVSLTCLVKGFYPSDIAVEWESNGQPENNYKTTPPVLDSDGSFFLYSKLTVDKSRWQQGNVFSCSVMHEALHNHYTQKSLSLSPGGGSGGSEVQLVESGGGLVKPGGSLRLSCVASGFTFSDYYMSWFRQAPGKGLEWVSYISGSGTTIDYADSVKGRFTISRDNAKNSLYLQMNSLRAEDTAVYYCAREREPVAGTLDFDNWGQGTLVTVSS
In the case of B2, the EC50 came out at 0.331 nM in assay [1] and 4.62 nM in assay [2].

B3: PR007146 (bispecific antibody)
light: DIQMTQSPSTLSASVGDRVTVTCRASQSIYIWLAWYQQKPGKAPNLLIYKASSLETGVPSRFSGSGSGTEFTLTISSLQPDDFATYYCQQYYGSSRTFGQGTKVEIKRTVAAPSVFIFPPSDEQLKSGTASVVCLLNNFYPREAKVQWKVDNALQSGNSQESVTEQDSKDSTYSLSSTLTLSKADYEKHKVYACEVTHQGLSSPVTKSFNRGEC
heavy: EVQLVESGGGLVQPGGSLRLSCAASGFTFSSYWMSWVRQAPGKGLEWVANIKQEGSEKYYVDSVKGRFTISRDNAKNSLYLQMNSLRAEDTAVYYCARDRAVAGAFDIWGQGTMVTVSSASTKGPSVFPLAPSSKSTSGGTAALGCLVKDYFPEPVTVSWNSGALTSGVHTFPAVLQSSGLYSLSSVVTVPSSSLGTQTYICNVNHKPSNTKVDKKVEPKSCDKTHTCPPCPAPEAAGAPSVFLFPPKPKDTLMISRTPEVTCVVVDVSHEDPEVKFNWYVDGVEVHNAKTKPREEQYNSTYRVVSVLTVLHQDWLNGKEYKCKVSNKALPAPIEKTISKAKGQPREPQVYTLPPSREEMTKNQVSLTCLVKGFYPSDIAVEWESNGQPENNYKTTPPVLDSDGSFFLYSKLTVDKSRWQQGNVFSCSVMHEALHNHYTQKSLSLSPGGGSGGSEVQLVESGGGLVKPGGSLRLSCAASGFTFSDYYMSWVRQAPGKGLEWVSYISSSGSTIDYADSVKGRFTISRDNAKNSLFLEMNSLRAEDTAVYYCAREREEVAGTLDFDNWGQGTLVTVSS
Regarding B3, the EC50 in assay [1] was 0.327 nM; in assay [2], 6.95 nM.

B4: PR007138 (bispecific antibody)
light: DIQMTQSPSTLSASVGDRVTVTCRASQSIYIWLAWYQQKPGKAPNLLIYKASSLETGVPSRFSGSGSGTEFTLTISSLQPDDFATYYCQQYYGSSRTFGQGTKVEIKRTVAAPSVFIFPPSDEQLKSGTASVVCLLNNFYPREAKVQWKVDNALQSGNSQESVTEQDSKDSTYSLSSTLTLSKADYEKHKVYACEVTHQGLSSPVTKSFNRGEC
heavy: EVQLVESGGGLVQPGGSLRLSCAASGFTFSSYWMSWVRQAPGKGLEWVANIKQEGSEKYYVDSVKGRFTISRDNAKNSLYLQMNSLRAEDTAVYYCARDRAVAGAFDIWGQGTMVTVSSASTKGPSVFPLAPSSKSTSGGTAALGCLVKDYFPEPVTVSWNSGALTSGVHTFPAVLQSSGLYSLSSVVTVPSSSLGTQTYICNVNHKPSNTKVDKKVEPKSCDKTHTCPPCPAPEAAGAPSVFLFPPKPKDTLMISRTPEVTCVVVDVSHEDPEVKFNWYVDGVEVHNAKTKPREEQYNSTYRVVSVLTVLHQDWLNGKEYKCKVSNKALPAPIEKTISKAKGQPREPQVYTLPPSREEMTKNQVSLTCLVKGFYPSDIAVEWESNGQPENNYKTTPPVLDSDGSFFLYSKLTVDKSRWQQGNVFSCSVMHEALHNHYTQKSLSLSPGGGSGGSEVQLVESGGGLVKPGGSLRLSCVTSGFTFSDYYMNWIRQAPGKGQEWVSYISGNGSTIYYADSVKGRFTISRDNAKNSLYLQMNSLRAEDTAVYYCARVRPGGSGNYWDWFDPWGQGTPVTVSS
Regarding B4, the values for the EC50 in assay [1] and in assay [2] were 0.202 nM and 3.15 nM, respectively.

B5: PR007149 (bispecific antibody)
light: DIQMTQSPSTLSASVGDRVTVTCRASQSIYIWLAWYQQKPGKAPNLLIYKASSLETGVPSRFSGSGSGTEFTLTISSLQPDDFATYYCQQYYGSSRTFGQGTKVEIKRTVAAPSVFIFPPSDEQLKSGTASVVCLLNNFYPREAKVQWKVDNALQSGNSQESVTEQDSKDSTYSLSSTLTLSKADYEKHKVYACEVTHQGLSSPVTKSFNRGEC
heavy: EVQLVESGGGLVQPGGSLRLSCAASGFTFSSYWMSWVRQAPGKGLEWVANIKQEGSEKYYVDSVKGRFTISRDNAKNSLYLQMNSLRAEDTAVYYCARDRAVAGAFDIWGQGTMVTVSSASTKGPSVFPLAPSSKSTSGGTAALGCLVKDYFPEPVTVSWNSGALTSGVHTFPAVLQSSGLYSLSSVVTVPSSSLGTQTYICNVNHKPSNTKVDKKVEPKSCDKTHTCPPCPAPEAAGAPSVFLFPPKPKDTLMISRTPEVTCVVVDVSHEDPEVKFNWYVDGVEVHNAKTKPREEQYNSTYRVVSVLTVLHQDWLNGKEYKCKVSNKALPAPIEKTISKAKGQPREPQVYTLPPSREEMTKNQVSLTCLVKGFYPSDIAVEWESNGQPENNYKTTPPVLDSDGSFFLYSKLTVDKSRWQQGNVFSCSVMHEALHNHYTQKSLSLSPGGGSGGSEVQLVESGGGLVKPGGSLRLSCTTSGFTFSDYYMNWVRQAPGKGLEWVSYISNNGSTIYYADSVKGRFTISRDNAKNSLYLQMNSLRAEDTAVYYCARVRPGGSGNYWDWFDPWGQGTPVTVSS
As to B5, the EC50 stood at 0.206 nM in assay [1] and 2.36 nM in assay [2].

B6: PR007143 (bispecific antibody)
light: DIQMTQSPSTLSASVGDRVTVTCRASQSIYIWLAWYQQKPGKAPNLLIYKASSLETGVPSRFSGSGSGTEFTLTISSLQPDDFATYYCQQYYGSSRTFGQGTKVEIKRTVAAPSVFIFPPSDEQLKSGTASVVCLLNNFYPREAKVQWKVDNALQSGNSQESVTEQDSKDSTYSLSSTLTLSKADYEKHKVYACEVTHQGLSSPVTKSFNRGEC
heavy: EVQLVESGGGLVQPGGSLRLSCAASGFTFSSYWMSWVRQAPGKGLEWVANIKQEGSEKYYVDSVKGRFTISRDNAKNSLYLQMNSLRAEDTAVYYCARDRAVAGAFDIWGQGTMVTVSSASTKGPSVFPLAPSSKSTSGGTAALGCLVKDYFPEPVTVSWNSGALTSGVHTFPAVLQSSGLYSLSSVVTVPSSSLGTQTYICNVNHKPSNTKVDKKVEPKSCDKTHTCPPCPAPEAAGAPSVFLFPPKPKDTLMISRTPEVTCVVVDVSHEDPEVKFNWYVDGVEVHNAKTKPREEQYNSTYRVVSVLTVLHQDWLNGKEYKCKVSNKALPAPIEKTISKAKGQPREPQVYTLPPSREEMTKNQVSLTCLVKGFYPSDIAVEWESNGQPENNYKTTPPVLDSDGSFFLYSKLTVDKSRWQQGNVFSCSVMHEALHNHYTQKSLSLSPGGGSGGSEVQLVESGGGLVKPGGSLRLSCVASGFTFSDYYMSWFRQAPGKGLEWVSYISGSGTTIDYADSVKGRFTISRDNAKNSLYLQMNSLRAEDTAVYYCAREREAVAGTLDFDNWGQGTPVTVSS
B6: the EC50 in assay [1] came out at 0.315 nM; in assay [2] it was 3.4 nM.

B7: PR007145 (bispecific antibody)
light: DIQMTQSPSTLSASVGDRVTVTCRASQSIYIWLAWYQQKPGKAPNLLIYKASSLETGVPSRFSGSGSGTEFTLTISSLQPDDFATYYCQQYYGSSRTFGQGTKVEIKRTVAAPSVFIFPPSDEQLKSGTASVVCLLNNFYPREAKVQWKVDNALQSGNSQESVTEQDSKDSTYSLSSTLTLSKADYEKHKVYACEVTHQGLSSPVTKSFNRGEC
heavy: EVQLVESGGGLVQPGGSLRLSCAASGFTFSSYWMSWVRQAPGKGLEWVANIKQEGSEKYYVDSVKGRFTISRDNAKNSLYLQMNSLRAEDTAVYYCARDRAVAGAFDIWGQGTMVTVSSASTKGPSVFPLAPSSKSTSGGTAALGCLVKDYFPEPVTVSWNSGALTSGVHTFPAVLQSSGLYSLSSVVTVPSSSLGTQTYICNVNHKPSNTKVDKKVEPKSCDKTHTCPPCPAPEAAGAPSVFLFPPKPKDTLMISRTPEVTCVVVDVSHEDPEVKFNWYVDGVEVHNAKTKPREEQYNSTYRVVSVLTVLHQDWLNGKEYKCKVSNKALPAPIEKTISKAKGQPREPQVYTLPPSREEMTKNQVSLTCLVKGFYPSDIAVEWESNGQPENNYKTTPPVLDSDGSFFLYSKLTVDKSRWQQGNVFSCSVMHEALHNHYTQKSLSLSPGGGSGGSEVQLVESGGGLVKPGGSLRLSCAASGFTFSDYYMSWIRQAPGKGLEWVSYISRSGSTIYYADSVKGRFTISRDNAKNSLYLQMNSLRAEDTAVYYCARVRPGGSGNYWDWFDPWGQGTLVTVSS
Take B7: the EC50 in assay [1] was 0.286 nM; in assay [2] it was 22.4 nM.
